Source: paper PMC11193732 (Scientific Reports, 2024)

Experiments:
[1] = target: T1, SARS-CoV-2 spike 1099-1112 peptide (GTH peptide) (Severe acute respiratory syndrome …); assay: SPR; conditions: both partners purified
T1 construct: SARS-CoV-2 spike protein, residues 1099-1112, between HR1 and HR2 of the S2 domain
T1 chain: GTHWFVTQRNFYEP

[2] = target: S2 subunit of the SARS-CoV-2 WT spike protein in infected Vero cells (SARS-CoV-2, Wuhan (WT), UniProt P0DTC2); assay: western blot; conditions: one partner purified
[3] = target: T2, 6xHis-tagged recombinant SARS-CoV-2 (2019-nCoV) spike protein S1 + S2 extracellular domain (Severe acute respiratory syndrome …, UniProt P0DTC2); assay: ELISA; […] (40 ng/mL, 50 μL) […]; conditions: one partner purified
T2 construct: SARS-CoV-2 (2019-nCoV) spike protein, S1 + S2 extracellular domain; lacks the cytoplasmic region; retains the S1/S2 cleavage regions; No catalogue number or limits are printed; also called recombinant S1 + S2; recombinant spike protein

[4] = target: T3, spike protein (S1 + S2) of SARS-CoV-2 WT (Wuhan strain) (SARS-CoV-2, Wuhan (WT), UniProt P0DTC2); assay: ELISA; wells coated with 1 × 10^5 heat-inactivated virus in PBS; 5G2 mAb added; anti-mouse IgG-F(ab')2-HRP, A450; conditions: one partner purified
T3 construct: uncleaved S1 + S2 spike protein of SARS-CoV-2 WT (Wuhan strain), as made by the virus; also called original Wuhan strain; the coronavirus

[5] = target: T4, 6xHis-tagged recombinant SARS-CoV-2 (2019-nCoV) spike S2 extracellular domain (SARS-CoV-2, Wuhan (2019-nCoV), UniProt P0DTC2); assay: western blot; recombinant spike proteins separated by SDS-PAGE on nitrocellulose; 5G2 mAb 0.2 μg/mL, RT 1 h; anti-mouse IgG-F(ab')2-HRP; conditions: both partners purified
T4 construct: SARS-CoV-2 (2019-nCoV) spike protein, S2 extracellular domain; lacks the cytoplasmic region; No catalogue number or limits are printed; also called recombinant S2; S2 subunit of the recombinant spike protein

[6] = target: T3, spike protein (S1 + S2) of SARS-CoV-2 …; assay: western blot; conditions: one partner purified
[7] = target: T2, 6xHis-tagged recombinant SARS-CoV-2 …; assay: western blot; recombinant spike proteins separated by SDS-PAGE on nitrocellulose; MBP-sc5G2-6xHis 0.8 μg/mL, RT 1 h; anti-MBP antibody and anti-mouse IgG-F(ab')2-HRP; conditions: both partners purified
[8] = target: T4, 6xHis-tagged recombinant SARS-CoV-2 …; assay: as above; conditions: both partners purified
[9] = target: T2, 6xHis-tagged recombinant SARS-CoV-2 …; assay: western blot; conditions: one partner purified
[10] = target: T4, 6xHis-tagged recombinant SARS-CoV-2 …; assay: western blot; conditions: one partner purified
[11] = target: T5, recombinant S2 subunit of the spike protein without 6xHis (SARS-CoV-2, Wuhan (WT), UniProt P0DTC2); assay: western blot
T5 construct: also called r-S2; recombinant S2 without 6xHis

B1: 5G2 monoclonal antibody (antibody, V domains shown)
VH: QIQLVQSGPELKKPGATVKISCKASGYTFTNYGMHWLKQTPGKVLKWMGLINTYTGEPKYADDFKGRFAFSLETSASTAYLQINNLRSEDTATYFCARKGLGLRPPMDSWGQGTSVTVSS
VL: QIVLSQSPAILSASPGEKVTMTCRASSSVNYMHWCQQKPGSSPKPLIHGTSNLASGVPGRFSGSGSGTSYSLTISRVEAEDAATYYCHQWNSYPLTFGAGTRLEL
notes: also called 5G2 mAb; mAb 5G2
Kd [1]: 0.11 nM | binding result [2]: binds | binding result [3]: binds | binding result [4]: binds | binding result [5]: binds

B2: MBP-sc5G2-6xHis produced by HEK293FT cells (scFv, V domains shown)
VH: QIQLVQSGPELKKPGATVKISCKASGYTFTNYGMHWLKQTPGKVLKWMGLINTYTGEPKYADDFKGRFAFSLETSASTAYLQINNLRSEDTATYFCARKGLGLRPPMDSWGQGTSVTVSS
VL: QIVLSQSPAILSASPGEKVTMTCRASSSVNYMHWCQQKPGSSPKPLIHGTSNLASGVPGRFSGSGSGTSYSLTISRVEAEDAATYYCHQWNSYPLTFGAGTRLEL
notes: as the heavy chain variable region of m1; as the light chain variable region of m1; The MBP cDNA came from the pMAL-p2 vector; not shown: MBP, N-terminal, kept; 6xHis, C-terminal, kept
binding result [6]: binds | binding result [7]: binds | binding result [8]: binds

B3: MBP-sc5G2-6xHis produced by E. coli (refolded) (scFv, V domains shown)
VH: QIQLVQSGPELKKPGATVKISCKASGYTFTNYGMHWLKQTPGKVLKWMGLINTYTGEPKYADDFKGRFAFSLETSASTAYLQINNLRSEDTATYFCARKGLGLRPPMDSWGQGTSVTVSS
VL: QIVLSQSPAILSASPGEKVTMTCRASSSVNYMHWCQQKPGSSPKPLIHGTSNLASGVPGRFSGSGSGTSYSLTISRVEAEDAATYYCHQWNSYPLTFGAGTRLEL
notes: as the heavy chain variable region of m1; as the light chain variable region of m1; Same cDNA as m3, in pET22b; not shown: MBP, N-terminal, kept; 6xHis, C-terminal, kept
binding result [6]: binds | binding result [7]: binds | binding result [8]: binds

B4: recombinant 5G2 (cloned heavy and light chains fused to mouse IgG constant γ1 and κ chains) (antibody, V domains shown)
VH: QIQLVQSGPELKKPGATVKISCKASGYTFTNYGMHWLKQTPGKVLKWMGLINTYTGEPKYADDFKGRFAFSLETSASTAYLQINNLRSEDTATYFCARKGLGLRPPMDSWGQGTSVTVSS
VL: QIVLSQSPAILSASPGEKVTMTCRASSSVNYMHWCQQKPGSSPKPLIHGTSNLASGVPGRFSGSGSGTSYSLTISRVEAEDAATYYCHQWNSYPLTFGAGTRLEL
notes: as the heavy chain variable region of m1; mouse IgG constant γ1 chain; as the light chain variable region of m1; mouse immunoglobulin constant κ chain; Mouse IgG1 kappa; also called recombinant heavy and light chains of 5G2; 293FT + cDNA
binding result [9]: binds | binding result [10]: binds

B5: sc5G2-6xHis produced by E. coli (refolded) (scFv, V domains shown)
VH: QIQLVQSGPELKKPGATVKISCKASGYTFTNYGMHWLKQTPGKVLKWMGLINTYTGEPKYADDFKGRFAFSLETSASTAYLQINNLRSEDTATYFCARKGLGLRPPMDSWGQGTSVTVSS
VL: QIVLSQSPAILSASPGEKVTMTCRASSSVNYMHWCQQKPGSSPKPLIHGTSNLASGVPGRFSGSGSGTSYSLTISRVEAEDAATYYCHQWNSYPLTFGAGTRLEL
notes: as the heavy chain variable region of m1; as the light chain variable region of m1; also called MBP-free sc5G2
binding result [11]: binds | binding result [6]: binds
